{
  "source": "patent US20230227545A1",
  "about": "(published 2023)",
  "binders": {"B1": {"name": "08F17A (antibody, human IgG1, kappa, V domains shown)", "VH": "EVQLVESGGGLVTPGGSLRLSCAASGFTFSGYSMNWVRQAPGKGLEWVSSISSSSGYIYYADSVKGRFTISRDNAKNSLYLQMNSLRAEDTAVYYCAREYWGSGFDYWGQGTLVTVSS", "VL": "DIQMTQSPSSLSASVGDRVTITCRASQGISYYLAWYQQKPGKVPKLLISAEFTLQSGVPSRFSGSGSGTDFTLTISSLQPEDVATYYCQKYNTAPRTFGQGTKVEIKR", "notes": "Kappa light chain; also called 08F17A (anti-IL-1β) mAb [IgG1: YTE]"}},
  "key": {"[1]": {"target": "T1, cynomolgus IL-1β (cynomolgus macaque, UniProt P79182 117-268)", "T1 sequence (looked up)": "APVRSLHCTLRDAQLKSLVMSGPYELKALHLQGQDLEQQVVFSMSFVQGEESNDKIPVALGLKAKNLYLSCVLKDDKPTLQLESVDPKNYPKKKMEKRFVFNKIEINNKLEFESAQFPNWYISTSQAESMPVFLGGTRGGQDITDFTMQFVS", "experiment": "cell-based or functional assay"}, "[2]": {"target": "T2, human IL-1β (human, UniProt P01584 117-269)", "experiment": "cell-based or functional assay"}, "[3]": {"target": "T2, human IL-1β", "experiment": "cell-based or functional assay", "remark": "listed apart in the source"}, "[4]": {"target": "T3, mouse IL-1β (mouse, UniProt P10749 118-269)", "T3 construct": "also called mouse IL-β", "T3 sequence (looked up)": "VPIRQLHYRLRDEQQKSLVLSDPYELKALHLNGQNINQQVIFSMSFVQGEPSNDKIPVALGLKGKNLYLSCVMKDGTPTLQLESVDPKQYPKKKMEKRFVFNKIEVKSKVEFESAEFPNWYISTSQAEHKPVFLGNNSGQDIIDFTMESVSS", "experiment": "SPR, Biacore 8K, mAb captured on anti-human Fc chip, soluble IL-1β as analyte", "description": "(§1) Affinity assessment of 05H21A, 15N14A, and 08F17A against human IL-1β was performed by Surface Plasmon Resonance (SPR) using a Biacore 8k. Cross-reactivity of the same antibody panel was also assessed against cyno, mouse, rat and pig IL-1β.\n(§2) SPR is a label-free technique to study the strength of an interaction between two binding partners by measuring the change in mass upon complex formation and dissociation. Briefly, antibodies were immobilized on a sensor chip which was coupled with goat anti-human Fc (GAH-Fc C1 sensor chip). Soluble IL-1β was flowed over the immobilized antibody and association/dissociation responses were monitored. Kinetic information (on-rate and off-rate constants) were extracted by fitting sensorgrams to the 1:1 Langmuir model. Binding affinity (KD) were reported as the ratio of rate constants (koff/kₒₙ)."}, "[5]": {"target": "T4, rat IL-1β (rat, UniProt Q63264 117-268)", "T4 construct": "also called rat IL-β", "T4 sequence (looked up)": "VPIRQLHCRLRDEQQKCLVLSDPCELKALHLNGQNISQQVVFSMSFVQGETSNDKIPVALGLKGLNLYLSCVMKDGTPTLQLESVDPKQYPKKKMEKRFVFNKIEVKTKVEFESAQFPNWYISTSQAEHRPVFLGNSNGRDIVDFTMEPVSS", "experiment": "SPR, Biacore 8K, mAb captured on anti-human Fc chip, soluble IL-1β as analyte", "description": "as §1, §2"}, "[6]": {"target": "T5, pig IL-1β (pig, UniProt P26889 115-267)", "T5 construct": "also called pig IL-β", "T5 sequence (looked up)": "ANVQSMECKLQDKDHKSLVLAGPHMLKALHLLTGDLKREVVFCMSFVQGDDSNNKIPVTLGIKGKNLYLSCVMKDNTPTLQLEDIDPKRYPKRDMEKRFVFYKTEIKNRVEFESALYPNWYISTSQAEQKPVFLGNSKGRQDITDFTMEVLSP", "experiment": "SPR, Biacore 8K, mAb captured on anti-human Fc chip, soluble IL-1β as analyte", "description": "as §1, §2"}, "[7]": {"target": "T2, human IL-1β", "experiment": "cell-based or functional assay", "remark": "listed apart in the source"}, "[8]": {"target": "T2, human IL-1β", "experiment": "SPR, Biacore 8K, mAb captured on goat anti-human Fc C1 chip, soluble IL-1β as analyte, 1:1 Langmuir fit", "description": "as §1, §2"}, "[9]": {"target": "T1, cynomolgus IL-1β", "experiment": "SPR, Biacore 8K, mAb captured on goat anti-human Fc C1 chip, soluble IL-1β as analyte, 1:1 Langmuir fit", "description": "as §1, §2"}},
  "data": [
    {"binder": "B1", "values": [
      {"measurement": "IC30, inhibition of G-CSF release, cynomolgus lung fibroblasts (CLF), 15 pM rcynoIL-1β", "setting": "[1]", "value": 3.58, "unit": "nM"},
      {"measurement": "IC30, inhibition of IL-6 release, cynomolgus dermal fibroblasts (CDF), 5 pM rcynoIL-1β", "setting": "[1]", "value": 2.72, "unit": "nM"},
      {"measurement": "IC30, inhibition of IL-6 release, cynomolgus lung fibroblasts (CLF), 15 pM rcynoIL-1β", "setting": "[1]", "value": 3.44, "unit": "nM"},
      {"measurement": "IC50, inhibition of G-CSF release, cynomolgus dermal fibroblasts (CDF), 5 pM rcynoIL-1β", "setting": "[1]", "value": 3.24, "unit": "nM"},
      {"measurement": "IC50, inhibition of G-CSF release, cynomolgus lung fibroblasts (CLF), 15 pM rcynoIL-1β", "setting": "[1]", "value": 6.11, "unit": "nM"},
      {"measurement": "IC50, inhibition of IL-6 release, cynomolgus dermal fibroblasts (CDF), 5 pM rcynoIL-1β", "setting": "[1]", "value": 5.1, "unit": "nM"},
      {"measurement": "IC50, inhibition of IL-6 release, cynomolgus lung fibroblasts (CLF), 15 pM rcynoIL-1β", "setting": "[1]", "value": 6.97, "unit": "nM"},
      {"measurement": "IC90, inhibition of G-CSF release, cynomolgus lung fibroblasts (CLF), 15 pM rcynoIL-1β", "setting": "[1]", "value": 24.3, "unit": "nM"},
      {"measurement": "IC90, inhibition of IL-6 release, cynomolgus dermal fibroblasts (CDF), 5 pM rcynoIL-1β", "setting": "[1]", "value": 25.9, "unit": "nM"},
      {"measurement": "IC90, inhibition of IL-6 release, cynomolgus lung fibroblasts (CLF), 15 pM rcynoIL-1β", "setting": "[1]", "value": 43.6, "unit": "nM"},
      {"measurement": "IC30, inhibition of rhIL-1β-induced cytokine release, NHDF donor 29114", "setting": "[2]", "value": 0.087, "unit": "nM"},
      {"measurement": "IC30, inhibition of rhIL-1β-induced cytokine release, NHLF donor 34325", "setting": "[2]", "value": 0.127, "unit": "nM"},
      {"measurement": "IC30, inhibition of rhIL-1β-induced cytokine release, NHLF donor 35234", "setting": "[2]", "value": 0.09, "unit": "nM"},
      {"measurement": "IC50, inhibition of rhIL-1β-induced cytokine release, NHDF donor 29114", "setting": "[2]", "value": 0.174, "unit": "nM"},
      {"measurement": "IC50, inhibition of rhIL-1β-induced cytokine release, NHLF donor 34325", "setting": "[2]", "value": 0.293, "unit": "nM"},
      {"measurement": "IC50, inhibition of rhIL-1β-induced cytokine release, NHLF donor 35234", "setting": "[2]", "value": 0.207, "unit": "nM"},
      {"measurement": "IC90, inhibition of rhIL-1β-induced cytokine release, NHDF donor 29114", "setting": "[2]", "value": 1.07, "unit": "nM"},
      {"measurement": "IC90, inhibition of rhIL-1β-induced cytokine release, NHLF donor 34325", "setting": "[2]", "value": 2.55, "unit": "nM"},
      {"measurement": "IC90, inhibition of rhIL-1β-induced cytokine release, NHLF donor 35234", "setting": "[2]", "value": 1.8, "unit": "nM"},
      {"measurement": "IC30, inhibition of rhIL-1β-induced CXCL5 release, human whole blood (5 donors)", "setting": "[3]", "value": 1.33, "unit": "nM"},
      {"measurement": "IC30, inhibition of rhIL-1β-induced G-CSF release, human whole blood (5 donors)", "setting": "[3]", "value": 0.704, "unit": "nM"},
      {"measurement": "IC30, inhibition of rhIL-1β-induced IL-6 release, human whole blood (5 donors)", "setting": "[3]", "value": 0.872, "unit": "nM"},
      {"measurement": "IC50, inhibition of rhIL-1β-induced CXCL5 release, human whole blood (5 donors)", "setting": "[3]", "value": 2.86, "unit": "nM"},
      {"measurement": "IC50, inhibition of rhIL-1β-induced G-CSF release, human whole blood (5 donors)", "setting": "[3]", "value": 1.31, "unit": "nM"},
      {"measurement": "IC50, inhibition of rhIL-1β-induced IL-6 release, human whole blood (5 donors)", "setting": "[3]", "value": 1.53, "unit": "nM"},
      {"measurement": "IC90, inhibition of rhIL-1β-induced CXCL5 release, human whole blood (5 donors)", "setting": "[3]", "value": 20.8, "unit": "nM"},
      {"measurement": "IC90, inhibition of rhIL-1β-induced G-CSF release, human whole blood (5 donors)", "setting": "[3]", "value": 6.58, "unit": "nM"},
      {"measurement": "IC90, inhibition of rhIL-1β-induced IL-6 release, human whole blood (5 donors)", "setting": "[3]", "value": 6.56, "unit": "nM"},
      {"measurement": "binding result", "setting": "[4]", "value": "no binding"},
      {"measurement": "binding result", "setting": "[5]", "value": "no binding"},
      {"measurement": "binding result", "setting": "[6]", "value": "no binding"},
      {"measurement": "IC30, inhibition of IL-6 release, human PBMCs (n=5 donors), 10 pM rhIL-1β", "setting": "[7]", "value": 52, "unit": "pM"},
      {"measurement": "IC30, inhibition of IL-6 release, human PBMCs (n=5 donors), 30 pM rhIL-1β", "setting": "[7]", "value": 0.156, "unit": "nM"},
      {"measurement": "IC50, inhibition of IL-6 release, human PBMCs (n=5 donors), 10 pM rhIL-1β", "setting": "[7]", "value": 92, "unit": "pM"},
      {"measurement": "IC50, inhibition of IL-6 release, human PBMCs (n=5 donors), 30 pM rhIL-1β", "setting": "[7]", "value": 0.241, "unit": "nM"},
      {"measurement": "IC90, inhibition of IL-6 release, human PBMCs (n=5 donors), 10 pM rhIL-1β", "setting": "[7]", "value": 0.402, "unit": "nM"},
      {"measurement": "IC90, inhibition of IL-6 release, human PBMCs (n=5 donors), 30 pM rhIL-1β", "setting": "[7]", "value": 0.744, "unit": "nM"},
      {"measurement": "Kd", "setting": "[8]", "value": 0.18, "unit": "nM"},
      {"measurement": "Kd", "setting": "[9]", "value": 1.71, "unit": "nM"},
      {"measurement": "koff", "setting": "[9]", "value": 0.000295, "unit": "s⁻¹"},
      {"measurement": "kon", "setting": "[9]", "value": 172000, "unit": "M⁻¹ s⁻¹"}
    ]}
  ]
}
